Data from paper PMC6838198, “Insights into the assembly and architecture of a Staufen-mediated mRNA decay (SMD)-competent mRNP” (Nature Communications, 2019).

Columns and labels:
[1] = target: Stau1 dsRBD2-3-4-dd (human); assay: SEC-MALS; about 350 µg of each Stau1 construct on Superdex 200 10/300; 20 mM HEPES pH 7.5, 150 mM NaCl, 0.02% NaN3; dimer to monomers
[2] = target: the molecule itself; assay: SEC; analytical SEC of full-length Stau1 alone; monomer and dimer peaks
[3] = target: GST-UPF1 (CH domain and helicase core) (human) (UniProt Q92900); assay: pull-down; as the GST pull-down, with UPF2 added as a third purified protein
[4] = target: T1, GST-UPF1CH (human, UniProt Q92900-2 115-272); assay: as above; details: both partners purified
T1 construct: human UPF1, N-terminal cysteine-histidine-rich (CH) domain; also called UPF1CH domain; source: E. coli BL21 (DE3) STAR pRARE, purified (Ni-NTA, heparin, SEC)
T1 sequence (looked up): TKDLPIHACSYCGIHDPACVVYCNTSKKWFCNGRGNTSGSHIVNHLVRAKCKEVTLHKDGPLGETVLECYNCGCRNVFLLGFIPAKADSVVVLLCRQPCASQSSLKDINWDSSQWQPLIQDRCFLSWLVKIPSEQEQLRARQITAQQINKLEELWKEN

[5] = target: T1, GST-UPF1CH; assay: pull-down; GST-tagged bait and prey mixed in equal amounts, 4 °C 16 h, Glutathione Sepharose; 20 mM HEPES pH 7.5, 150 mM NaCl, 10% glycerol, 0.1% NP-40; eluted with 20 mM glutathione, SDS-PAGE and Coomassie; bands quantified with ImageJ; details: both partners purified

Row | Molecule | stoichiometry N [1] | stoichiometry N [2] | fold increase of co-precipitated Stau1 on addition of UPF2 [3] [fold] | fold increase of co-precipitated Stau1 on addition of UPF2 [4] [fold] | fold lower amount bound than UPF2s [5] [fold]
1 | Stau1 dsRBD2-3-4-dd (domain or fragment) | 2 | – | – | – | –
2 | Stau1, full length (Stau1_63, the longer isoform, 577 residues) (natural protein, human, UniProt O95793 1-577, looked up, human Stau1, longer isoform Stau1_63, 577 residues; In rapid equilibrium between monomer and dimer in solution; source: E. coli BL21 (DE3) STAR pRARE, purified (Ni-NTA, heparin, SEC)) MSQVQVQVQNPSAALSGSQILNKNQSLLSQPLMSIPSTTSSLPSENAGRPIQNSALPSASITSTSAAAESITPTVELNALCMKLGKKPMYKPVDPYSRMQSTYNYNMRGGAYPPRYFYPFPVPPLLYQVELSVGGQQFNGKGKTRQAAKHDAAAKALRILQNEPLPERLEVNGRESEEENLNKSEISQVFEIALKRNLPVNFEVARESGPPHMKNFVTKVSVGEFVGEGEGKSKKISKKNAAIAVLEELKKLPPLPAVERVKPRIKKKTKPIVKPQTSPEYGQGINPISRLAQIQQAKKEKEPEYTLLTERGLPRRREFVMQVKVGNHTAEGTGTNKKVAKRNAAENMLEILGFKVPQAQPTKPALKSEEKTPIKKPGDGRKVTFFEPGSGDENGTSNKEDEFRMPYLSHQQLPAGILPMVPEVAQAVGVSQGHHTKDFTRAAPNPAKATVTAMIARELLYGGTSPTAETILKNNISSGHVPHGPLTRPSEQLDYLSRVQGFQVEYKDFPKNNKNEFVSLINCSSQPPLISHGIGKDVESCHDMAALNILKLLSELDQQSTEMPRTGNGPMSVCGRC | – | 2 | 3.3 | 2.3 | 3.3
